Test [1] has as its target Microtubule extensions grown from free porcine brain tubulin with GTP (GDP-tubulin lattice with growing ends) (porcine) (UniProt P02550). The experiment in a line: two-color TIRF microscopy; GMPCPP seeds immobilised on coverslips (biotin-neutravidin or anti-rhodamine antibodies); 50 nM EB1-GFP with 12 uM free tubulin (10-24 uM in other runs) and 1 mM GTP in Imaging Buffer (BRB80, glucose, glucose-oxidase, catalase, casein, beta-mercaptoethanol), no additional salt; 35 C.

For test [2], the target named is GMPCPP microtubules (GMPCPP-tubulin microtubule lattice; seeds and GMPCPP-grown extensions) of porcine brain tubulin (porcine) (UniProt P02550). The test is described as above.

As for “C-terminus GFP-tagged EB1 (from UniProt Q15691 1-268) (natural protein)”, the average fluorescence intensity, extension minus background in test [1] amounted to 12.8 AU. The average fluorescence intensity, seed minus background in test [2] worked out at 62.6 AU.
